Data taken from patent US20080286312A1.
Blank lines part the entries; values can stand above or below the substance they belong to.

What was measured:
H-2K^b (mouse) [1] = biological target: H-2K^b (mouse) (UniProt P01901); experiment: flow cytometry, RMA-S transfectant Y317-2, 37° C.
[2] = biological target: K^b/OVA257-264 complex on Y317-2 cells (H-2K^b with OVA257-264 linked to human membranal β2m) (mouse; chicken; human); experiment: flow cytometry, RMA-S transfectant Y317-2, 37° C.
H-2K^k (mouse) [3] = biological target: H-2K^k (mouse) (UniProt P04223); experiment: flow cytometry with QIFIKIT, MD45 transfectant 427-24
H-2K^k (mouse) [4] = biological target: H-2K^k (mouse) (UniProt P04223); experiment: flow cytometry with QIFIKIT, parental MD45 cells
H-2K^k (mouse) [5] = biological target: H-2K^k (mouse) (UniProt P04223); experiment: flow cytometry with QIFIKIT, MD45 transfectant 425-44
[6] = biological target: Ha255-262 dcβ2m (Ha255-262 - linker - human β2m - bridge - mouse CD3 ζ) (influenza virus; human; mouse) (UniProt P61769); experiment: flow cytometry with QIFIKIT, MD45 transfectant 427-24
[7] = biological target: hβ2m-CD40 (human β2m fused through a bridge to the mouse CD40 transmembrane and cytoplasmic region) (human; mouse) (UniProt P61769); experiment: cell-based or functional assay
[8] = biological target: NP50-57 dcβ2m (NP50-57 - linker - human β2m - bridge - mouse CD3 ζ) (influenza virus; human; mouse) (UniProt P61769); experiment: flow cytometry with QIFIKIT, MD45 transfectant 425-44
H-2K^k (mouse) [9] = biological target: H-2K^k (mouse) (UniProt P04223); experiment: derived from QIFIKIT flow cytometry with Fab13.4.1 and AF3-12.1 on 427-24 cells
H-2K^b (mouse) [10] = biological target: H-2K^b (mouse) (UniProt P01901); experiment: derived from MFI of 25D-1.16 and anti-H-2K^b staining of Y317-2 cells at 37° C.
H-2K^d (mouse) = H-2K^d (mouse) (UniProt P01902); experiment: cell-based or functional assay
Sequence of UniProt P01902 (P01902 22-305 limits assumed): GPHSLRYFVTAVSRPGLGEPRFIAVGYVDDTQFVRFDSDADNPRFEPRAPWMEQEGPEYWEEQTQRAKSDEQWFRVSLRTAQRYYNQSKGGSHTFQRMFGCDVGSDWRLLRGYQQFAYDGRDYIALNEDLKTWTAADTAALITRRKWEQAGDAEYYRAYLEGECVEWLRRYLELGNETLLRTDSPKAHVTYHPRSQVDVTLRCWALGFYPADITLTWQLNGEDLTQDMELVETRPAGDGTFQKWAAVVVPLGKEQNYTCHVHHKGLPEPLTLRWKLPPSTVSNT

Sequence of UniProt P04223 (P04223 22-369 limits assumed): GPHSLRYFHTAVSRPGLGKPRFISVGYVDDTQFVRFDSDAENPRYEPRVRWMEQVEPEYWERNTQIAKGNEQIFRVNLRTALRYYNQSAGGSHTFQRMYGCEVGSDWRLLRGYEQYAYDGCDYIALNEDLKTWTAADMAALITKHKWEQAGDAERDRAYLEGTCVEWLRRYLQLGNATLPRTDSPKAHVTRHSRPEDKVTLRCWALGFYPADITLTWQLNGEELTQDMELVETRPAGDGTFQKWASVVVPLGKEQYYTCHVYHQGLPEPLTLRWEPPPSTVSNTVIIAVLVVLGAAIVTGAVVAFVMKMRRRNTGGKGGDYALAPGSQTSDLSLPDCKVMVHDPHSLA
Sequence of UniProt P01901 (P01901 22-369 limits assumed): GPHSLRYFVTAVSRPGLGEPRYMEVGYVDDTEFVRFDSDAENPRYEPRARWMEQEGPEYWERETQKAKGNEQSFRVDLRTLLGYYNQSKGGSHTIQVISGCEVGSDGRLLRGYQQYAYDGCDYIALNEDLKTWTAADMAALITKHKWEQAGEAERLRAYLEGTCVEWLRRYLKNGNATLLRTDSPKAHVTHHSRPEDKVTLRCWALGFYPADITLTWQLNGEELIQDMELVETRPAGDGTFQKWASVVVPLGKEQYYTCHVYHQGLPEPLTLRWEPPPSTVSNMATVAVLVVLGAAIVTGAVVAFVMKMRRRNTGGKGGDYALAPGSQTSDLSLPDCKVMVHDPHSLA

mean fluorescence intensity (H-2K^b (mouse) [1]): 122 MFI
Substance: 20-8-4 anti-H-2K^b mAb (antibody)

mean fluorescence intensity [2]: 69.7 MFI
Substance: 25-D1.16 mAb specific to the complex H-2K^b/OVA257-264 (antibody)

quantity of surface antigen (QIFIKIT) (H-2K^k (mouse) [3]): 28600
quantity of surface antigen (QIFIKIT) (H-2K^k (mouse) [4]): 10900
quantity of surface antigen (QIFIKIT) (H-2K^k (mouse) [5]): 37600
Substance: AF3-12.1 anti-K^k mAb (antibody)

Substance: BM-63 anti-human β2m mAb (antibody)
quantity of surface antigen (QIFIKIT) [6]: 173000
decrease of total cellular IκBα (immunoblot) in A20 transfectant [7]: 39%
quantity of surface antigen (QIFIKIT) [8]: 467000

Substance: Ha255-262 dcβ2m (Ha255-262 - linker - human β2m - bridge - mouse CD3 ζ) (from UniProt P61769 21-119; P24161 31-164)
occupation of surface H-2K^k molecules (H-2K^k (mouse) [9]): 20%

H-2K^b occupancy (H-2K^b (mouse) [10]): 57%
Substance: OVA257-264 dcβ2m with human β2m and H-2K^b anchor (from UniProt P61769 21-119)

reduction of total cellular IκBα (immunoblot) in A20 transfectant after incubation with an anti-H-2 K^d mAb (H-2K^d (mouse)): 71%
Substance: hβ2m-CD40 (human β2m fused through a bridge to the mouse CD40 transmembrane and cytoplasmic region) (from UniProt P61769 21-119; P27512 194-289)
